Values of other authors as cited in publication PMC6272133.

Molecular target: LLT1 (Homo sapiens) (UniProt Q9UHP7)
Test: SPR

UniProt Q9UHP7, sequence (Q9UHP7 60-191): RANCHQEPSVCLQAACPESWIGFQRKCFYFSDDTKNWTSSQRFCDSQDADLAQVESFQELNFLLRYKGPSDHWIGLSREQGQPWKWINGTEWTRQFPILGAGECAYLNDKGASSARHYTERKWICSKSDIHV

Kd: 48 µM
Substance: NKRP1A ECD (from UniProt Q12918)
